Common to all, as to experiment: SEC
In general terms: SEC sorts molecules by how far they enter the pores of the column.

The target of test [1] is Nsp3 Ubl1 variant D80R E81R (SARS-CoV-2).
Test [2] concerns the target Nsp3 Ubl1 variant E26R E29R (SARS-CoV-2).
In test [3] the target is Nsp3 Ubl1 variant E49R E52R (SARS-CoV-2).
Test [4] deals with Nsp3 Ubl1 variant K33E K38E (SARS-CoV-2).
In test [5] the target is SARS-CoV-2 Nsp3 NAB domain, longer fragment, residues 1,050-1,216 (SARS-CoV-2).
Test [6] has as its target SARS-CoV-2 Nsp3 ubiquitin-like 1 (Ubl1) domain, residues 1-111 (SARS-CoV-2).

By stoichiometry N is commonly meant the number of molecules, sites or subunits per partner or assembly. Regarding “Nsp3 Ubl1 variant D80R E81R (domain or fragment)”, in test [1], the stoichiometry N was found to be 2. “Nsp3 Ubl1 variant E26R E29R (domain or fragment)” registered a stoichiometry N in test [2] of 2. The substance “Nsp3 Ubl1 variant E49R E52R (domain or fragment)” yielded a stoichiometry N in test [3] of 2.

Regarding “Nsp3 Ubl1 variant K33E K38E (domain or fragment)”, in test [4], the stoichiometry N turned out to be 2.

The substance “SARS-CoV-2 Nsp3 NAB domain, longer fragment, residues 1,050-1,216 (domain or fragment)” came in with a stoichiometry N in test [5] of 2. In test [6], “SARS-CoV-2 Nsp3 ubiquitin-like 1 (Ubl1) domain, residues 1-111 (domain or fragment)” had a stoichiometry N of 2.

The record behind these values is paper PMC12323374.
